From article doi:10.1101/519959 come the findings set out here.

As usually defined, the Kd is a measure of binding affinity in units of concentration. Lower therefore signals tighter binding.

The data set deals with T1, DBINO domain of dIno80 (Drosophila melanogaster, UniProt Q9VDY1 228-484).
T1 sequence: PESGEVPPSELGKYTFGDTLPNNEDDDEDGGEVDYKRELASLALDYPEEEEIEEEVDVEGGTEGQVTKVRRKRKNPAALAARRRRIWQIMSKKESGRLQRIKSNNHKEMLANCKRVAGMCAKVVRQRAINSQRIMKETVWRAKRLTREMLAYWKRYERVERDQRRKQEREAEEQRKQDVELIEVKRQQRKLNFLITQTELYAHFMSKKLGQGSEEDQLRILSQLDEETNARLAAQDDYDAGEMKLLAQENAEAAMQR
The data set is described as follows: fluorescent intercalator displacement.

B1: Hs.con (3 copies of Ino80 motif, 33-mer) (dsDNA)
DNA 1: CCCCGTCAGCCCCCCGTCAGCCCCCCGTCAGCC
DNA 2: GGCTGACGGGGGGCTGACGGGGGGCTGACGGGG
In turn, B1 returned a dissociation constant Kd of 10 µM.
